Assay results: patent publication US20220162308A1 (Novartis, published 2022)
Residue numbers refer to the chain shown, from its start.

Tests used:
[1] = biological target: T1, Non-mutated CD48-mouse IgG fusion construct (human; mouse, UniProt P09326 27-220, limits assumed); assay: ELISA: 1:10 diluted HEK293T supernatant of the CD48-mouse IgG construct; antibody at 25, 250 and 500 ng/mL; detection with goat anti-mouse IgG (H+L) HRP; Mean OD450-570
T1 construct: Used as HEK293T culture supernatant in the ELISA; also called hCD48EC:mouse-Ig; human CD48-mouse IgG1 fusion protein
T1 sequence: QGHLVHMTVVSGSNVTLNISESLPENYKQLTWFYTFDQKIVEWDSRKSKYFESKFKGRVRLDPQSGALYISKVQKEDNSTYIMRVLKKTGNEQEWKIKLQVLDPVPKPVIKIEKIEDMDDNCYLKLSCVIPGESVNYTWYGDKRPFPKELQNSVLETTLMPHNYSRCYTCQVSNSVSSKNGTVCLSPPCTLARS
Experimental: (§1) Applying the 3D structure models of the CD48 protein, three exposed loops of the protein were selected and changed by site directed mutagenesis utilizing PCR. Antibody binding epitopes were determined by ELISA. […] The template construct, hCD48EC:mouse-Ig originates from the expression plasmid generated to express the human CD48-mouse IgG1 fusion protein for immunization amplified from the commercial vector “Trueclone, CD48 (untagged)-Human CD48 molecule” (Origene, NM_001778.2). Primer for the site directed mutagenesis were synthesized by Microsynth (Switzerland).

[2] = biological target: T2, Construct #2250 (human; mouse, UniProt P09326 27-220, limits assumed); assay: as above
T2 construct: also called hCD48EC:mouse-Ig with KKTGNE modified into KKDASG
T2 chain: T1 sequence with T89D, G90A, N91S, E92G
Experimental: as §1

[3] = biological target: T3, 2249 (Homo sapiens, UniProt P09326); assay: as above
T3 chain: T1 sequence with D44A, S45A, R46G
Experimental: as §1

[4] = biological target: T4, Construct #2248 (human; mouse, UniProt P09326 27-220, limits assumed); assay: as above
T4 construct: also called hCD48EC:mouse-Ig with ENYKQ modified into GSSKQ
T4 chain: T1 sequence with E25G, N26S, Y27S
Experimental: as §1

[5] = biological target: T5, Human CD48 on cells (human, UniProt P09326 27-220); assay: cell-based or functional assay
T5 sequence: T1 sequence

B1: humanized CD48A (antibody, human IgG1, kappa)
heavy: not shown
light: EIVLTQSPDFQSVTPKEKVTITCRASQSIGSNIHWYQQKPDQSPKLLIKYTSESISGVPSRFSGSGSGTDFTLTINSLEAEDAATYYCQQSNSWPLTFGGGTKVEIKRTVAAPSVFIFPPSDEQLKSGTASVVCLLNNFYPREAKVQWKVDNALQSGNSQESVTEQDSKDSTYSLSSTLTLSKADYEKHKVYACEVTHQGLSSPVTKSFNRGEC
notes: also called humanized MEM102 antibody; anti-CD48A
EC50 (read off the curve) [1]: ~0.02 µg/mL | EC50 (read off the curve) [2]: ~0.02 µg/mL | EC50 (read off the curve) [3]: ~0.03 µg/mL | binding result [4]: no binding (tested: 500 ng/mL) | IC50 (nM), cell proliferation/survival (CellTiter-Glo), KMS-21-BM, with anti-human Fc-VC-MMAE [5]: 0.016 nM | IC50 (nM), cell proliferation/survival (CellTiter-Glo), KMS-27, with anti-human Fc-VC-MMAE [5]: 0.001 nM | IC50 (nM), cell proliferation/survival (CellTiter-Glo), NCI-H929, with anti-human Fc-VC-MMAE [5]: 0.007 nM | Span (Amax), KMS-21-BM, with anti-human Fc-VC-MMAE [5]: 92 | Span (Amax), KMS-27, with anti-human Fc-VC-MMAE [5]: 93.4 | Span (Amax), NCI-H929, with anti-human Fc-VC-MMAE [5]: 100
